In patent publication US20130017541:

Legend:
[1] = tested on: anti-N6-methyladenine monoclonal antibody (best hybridoma) (Mus musculus); test: ELONA; conditions: N6-methyladenine at position 6 (printed as marked A) [6 (N6-methyladenine)]; nearly 40 fold discrimination
[2] = tested on: anti-N6-methyladenine mouse polyclonal antisera (Mus musculus); test: ELONA; conditions: N6-methyladenine at position 6 (printed as marked A) [6 (N6-methyladenine)]; oligo ELISA, antisera 1:10,000
[3] = tested on: DpnI biotinylated (bDpnI); test: pulldown

GCAGGATCAACAGTCACACT [N6mA oligo]
binding signal (fold preference over unmethylated oligo) [1]: 40
binding signal (fold preference over unmethylated oligo) [2]: > 10

human genomic DNA
binding signal ([3]; 1 ug human DNA, one wash, reduced to 1% with three washes): 10 % recovered

E. coli genomic DNA
binding signal ([3]; N6-methyladenine at GATC (dam), 10 ng E. coli DNA in 1 ug human DNA, at least 30% at pg input): > 80 % recovered
